# Source: patent US20110251246A1
# Molecular target: His-tagged MUC1 cytoplasmic domain (His-MUC1-CD) (human)
# Assay: SPR (BIAcore), His-MUC1-CD immobilized on the sensor chip, peptide injected at 10 µM, 1:1 binding model
substance,measurement,value
MUC1/CQC peptide,Kd,30 nM
